Experimental data from publication PMC9040831 (mBio, 2022).
Numbering of substitutions follows the chain as printed. Names may count otherwise.

B1: AmtB (EcAmtB) (Escherichia coli K-12) (protein)
chain: APAVADKADNAFMMICTALVLFMTIPGIALFYGGLIRGKNVLSMLTQVTVTFALVCILWVVYGYSLAFGEGNNFFGNINWLMLKNIELTAVMGSIYQYIHVAFQGSFACITVGLIVGALAERIRFSAVLIFVVVWLTLSYIPIAHMVWGGGLLASHGALDFAGGTVVHINAAIAGLVGAYLIGKRVGFGKEAFKPHNLPMVFTGTAILYIGWFGFNAGSAGTANEIAALAFVNTVVATAAAILGWIFGEWALRGKPSLLGACSGAIAGLVGVTPACGYIGVGGALIIGVVAGLAGLWGVTMLKRLLRVDDPCDVFGVHGVCGIVGCIMTGIFAASSLGGVGFAEGVTMGHQLLVQLESIAITIVWSGVVAFIGYKLADLTVGLRVPEEQEREGLDVNSHGENAYNA
notes: AmtB(His)6 from pET22b(+), expressed in E. coli C43, purified, reconstituted into liposomes; homotrimer; 1U7G for the simulations only
B2: AmtB (EcAmtB) (Escherichia coli K-12; H190E) (protein)
chain: B1 chain with H168E
notes: as for B1
B3: AmtB (EcAmtB) (Escherichia coli K-12; H190D) (protein)
chain: B1 chain with H168D
notes: as for B1

Tests used:
AmtB (EcAmtB) = target: T1, AmtB (EcAmtB) (Escherichia coli, UniProt P69681); experiment: solid supported membrane electrophysiology (SSME), proteoliposomes; type: biochemical; details: read-out: Ammonium; transport; maximum transient current amplitude
T1 construct: AmtB(His)6 from pET22b(+), expressed in E. coli C43, purified, reconstituted into liposomes; homotrimer; 1U7G for the simulations only
T1 sequence (P69681 23-428): B1 chain
Excerpt: (§1) solid supported membrane electrophysiology (SSME), proteoliposomes on AmtB (EcAmtB)

[1] = substrate: CN; experiment: as above; type: biochemical, Escherichia coli; details: transport; maximum transient current amplitude
Excerpt: as §1

purified protein = substrate: N; experiment: purified protein; details: transport; maximum transient current amplitude

| Molecule | Km (AmtB (EcAmtB)) [mM] | Km [1] [mM] | Km (purified protein) [mM] |
| --- | --- | --- | --- |
| N [ammonium] | 0.8 ± 0.1 | – | – |
| B1 | – | 49.86 ± 4.76 | – |
| B2 | – | 86.00 ± 9.46 | 12.87 ± 7.79 |
| B3 | – | 55.09 ± 12.67 | 14.02 ± 4.08 |
